The source of these data is paper PMC2997501, “Different Residues on the Surface of the Methanothermobacter thermautotrophicus MCM Helicase Interact with Single- and Double-Stranded DNA” (Archaea, 2010).

This series deals with the molecule itself. In words: SEC; 100 micrograms of protein on a superose-6 column (HR10/30); 20 mM Tris-HCl pH 7.5, 150 mM NaCl, 10% glycerol; 22°C, 0.2 ml/min; A280; size markers thyroglobulin, ferritin, albumin, ovalbumin. For orientation: In gel filtration, larger molecules generally elute earlier.

B1: Methanothermobacter thermautotrophicus MCM protein, wild-type (enzyme, UniProt O27798 1-666, looked up)
chain: MMKTVDKSKTLTKFEEFFSLQDYKDRVFEAIEKYPNVRSIEVDYLDLEMFDPDLADLLIEKPDDVIRAAQQAIRNIDRLRKNVDLNIRFSGISNVIPLRELRSKFIGKFVAVDGIVRKTDEIRPRIVKAVFECRGCMRHHAVTQSTNMITEPSLCSECGGRSFRLLQDESEFLDTQTLKLQEPLENLSGGEQPRQITVVLEDDLVDTLTPGDIVRVTGTLRTVRDERTKRFKNFIYGNYTEFLEQEFEELQISEEDEEKIKELAGDPNIYEKIIRSTAPSIHGYREVKEAIALQLFGGTGKELDDKTRLRGDIHILIVGDPGIGKSQMLKYVSKLAPRGIYTSGKGTSGVGLTAAAVRDEFGGWSLEAGALVLGDKGNVCVDELDKMREEDRSAIHEALEQQTISIAKAGIMATLNSRCSVLAAANPKFGRFDSYKSIAEQIDLPSTILSRFDLIFVVEDKPDEEKDRELARHILKTHKEDHMPFEIDPELLRKYIAYARKNVRPVLTDEAMQVLEDFYVSMRASAADEDSPVPITARQLEALVRLSEASAKIKLKEHVEAEDARKAIKLSQACLKQVGYDPETGKIDIDKVEGRTPKSERDKFRLLLELIKEYEDDYGGRAPTNILITEMMDRYNVSEEKVEELIRILKDKGAIFEPARGYLKIV
notes: MCM helicase of Methanothermobacter thermautotrophicus, full-length enzyme, cloned in pET-21a (NdeI/XhoI); the text speaks of hexamers, dodecamers and filaments in equilibrium (cited work); also called wild-type enzyme; minichromosome maintenance helicase; source: E. coli DE3 codon plus cells, purified on a Ni-column
In the case of B1, the binding result is “binds”.

B2: Methanothermobacter thermautotrophicus MCM protein, V214A mutant (enzyme, UniProt O27798 1-666, looked up)
chain: MMKTVDKSKTLTKFEEFFSLQDYKDRVFEAIEKYPNVRSIEVDYLDLEMFDPDLADLLIEKPDDVIRAAQQAIRNIDRLRKNVDLNIRFSGISNVIPLRELRSKFIGKFVAVDGIVRKTDEIRPRIVKAVFECRGCMRHHAVTQSTNMITEPSLCSECGGRSFRLLQDESEFLDTQTLKLQEPLENLSGGEQPRQITVVLEDDLVDTLTPGDIARVTGTLRTVRDERTKRFKNFIYGNYTEFLEQEFEELQISEEDEEKIKELAGDPNIYEKIIRSTAPSIHGYREVKEAIALQLFGGTGKELDDKTRLRGDIHILIVGDPGIGKSQMLKYVSKLAPRGIYTSGKGTSGVGLTAAAVRDEFGGWSLEAGALVLGDKGNVCVDELDKMREEDRSAIHEALEQQTISIAKAGIMATLNSRCSVLAAANPKFGRFDSYKSIAEQIDLPSTILSRFDLIFVVEDKPDEEKDRELARHILKTHKEDHMPFEIDPELLRKYIAYARKNVRPVLTDEAMQVLEDFYVSMRASAADEDSPVPITARQLEALVRLSEASAKIKLKEHVEAEDARKAIKLSQACLKQVGYDPETGKIDIDKVEGRTPKSERDKFRLLLELIKEYEDDYGGRAPTNILITEMMDRYNVSEEKVEELIRILKDKGAIFEPARGYLKIV
notes: MCM helicase of Methanothermobacter thermautotrophicus, derivative of the full-length enzyme; source: E. coli DE3 codon plus cells, purified on a Ni-column
In the case of B2, the binding result is “binds”.

B3: Methanothermobacter thermautotrophicus MCM protein, P210G mutant (enzyme, UniProt O27798 1-666, looked up)
chain: MMKTVDKSKTLTKFEEFFSLQDYKDRVFEAIEKYPNVRSIEVDYLDLEMFDPDLADLLIEKPDDVIRAAQQAIRNIDRLRKNVDLNIRFSGISNVIPLRELRSKFIGKFVAVDGIVRKTDEIRPRIVKAVFECRGCMRHHAVTQSTNMITEPSLCSECGGRSFRLLQDESEFLDTQTLKLQEPLENLSGGEQPRQITVVLEDDLVDTLTGGDIVRVTGTLRTVRDERTKRFKNFIYGNYTEFLEQEFEELQISEEDEEKIKELAGDPNIYEKIIRSTAPSIHGYREVKEAIALQLFGGTGKELDDKTRLRGDIHILIVGDPGIGKSQMLKYVSKLAPRGIYTSGKGTSGVGLTAAAVRDEFGGWSLEAGALVLGDKGNVCVDELDKMREEDRSAIHEALEQQTISIAKAGIMATLNSRCSVLAAANPKFGRFDSYKSIAEQIDLPSTILSRFDLIFVVEDKPDEEKDRELARHILKTHKEDHMPFEIDPELLRKYIAYARKNVRPVLTDEAMQVLEDFYVSMRASAADEDSPVPITARQLEALVRLSEASAKIKLKEHVEAEDARKAIKLSQACLKQVGYDPETGKIDIDKVEGRTPKSERDKFRLLLELIKEYEDDYGGRAPTNILITEMMDRYNVSEEKVEELIRILKDKGAIFEPARGYLKIV
notes: as for B2
Take B3: the binding result is “binds”.

B4: Methanothermobacter thermautotrophicus MCM protein, G218A mutant (enzyme, UniProt O27798 1-666, looked up)
chain: MMKTVDKSKTLTKFEEFFSLQDYKDRVFEAIEKYPNVRSIEVDYLDLEMFDPDLADLLIEKPDDVIRAAQQAIRNIDRLRKNVDLNIRFSGISNVIPLRELRSKFIGKFVAVDGIVRKTDEIRPRIVKAVFECRGCMRHHAVTQSTNMITEPSLCSECGGRSFRLLQDESEFLDTQTLKLQEPLENLSGGEQPRQITVVLEDDLVDTLTPGDIVRVTATLRTVRDERTKRFKNFIYGNYTEFLEQEFEELQISEEDEEKIKELAGDPNIYEKIIRSTAPSIHGYREVKEAIALQLFGGTGKELDDKTRLRGDIHILIVGDPGIGKSQMLKYVSKLAPRGIYTSGKGTSGVGLTAAAVRDEFGGWSLEAGALVLGDKGNVCVDELDKMREEDRSAIHEALEQQTISIAKAGIMATLNSRCSVLAAANPKFGRFDSYKSIAEQIDLPSTILSRFDLIFVVEDKPDEEKDRELARHILKTHKEDHMPFEIDPELLRKYIAYARKNVRPVLTDEAMQVLEDFYVSMRASAADEDSPVPITARQLEALVRLSEASAKIKLKEHVEAEDARKAIKLSQACLKQVGYDPETGKIDIDKVEGRTPKSERDKFRLLLELIKEYEDDYGGRAPTNILITEMMDRYNVSEEKVEELIRILKDKGAIFEPARGYLKIV
notes: as for B2
With B4, the binding result is “binds”.

B5: Methanothermobacter thermautotrophicus MCM protein, PG210,211GA double mutant (enzyme, UniProt O27798 1-666, looked up)
chain: MMKTVDKSKTLTKFEEFFSLQDYKDRVFEAIEKYPNVRSIEVDYLDLEMFDPDLADLLIEKPDDVIRAAQQAIRNIDRLRKNVDLNIRFSGISNVIPLRELRSKFIGKFVAVDGIVRKTDEIRPRIVKAVFECRGCMRHHAVTQSTNMITEPSLCSECGGRSFRLLQDESEFLDTQTLKLQEPLENLSGGEQPRQITVVLEDDLVDTLTGADIVRVTGTLRTVRDERTKRFKNFIYGNYTEFLEQEFEELQISEEDEEKIKELAGDPNIYEKIIRSTAPSIHGYREVKEAIALQLFGGTGKELDDKTRLRGDIHILIVGDPGIGKSQMLKYVSKLAPRGIYTSGKGTSGVGLTAAAVRDEFGGWSLEAGALVLGDKGNVCVDELDKMREEDRSAIHEALEQQTISIAKAGIMATLNSRCSVLAAANPKFGRFDSYKSIAEQIDLPSTILSRFDLIFVVEDKPDEEKDRELARHILKTHKEDHMPFEIDPELLRKYIAYARKNVRPVLTDEAMQVLEDFYVSMRASAADEDSPVPITARQLEALVRLSEASAKIKLKEHVEAEDARKAIKLSQACLKQVGYDPETGKIDIDKVEGRTPKSERDKFRLLLELIKEYEDDYGGRAPTNILITEMMDRYNVSEEKVEELIRILKDKGAIFEPARGYLKIV
notes: as for B2
For the protein B5, the binding result is “binds”.

B6: Methanothermobacter thermautotrophicus MCM protein, Q176A mutant (enzyme, UniProt O27798 1-666, looked up)
chain: MMKTVDKSKTLTKFEEFFSLQDYKDRVFEAIEKYPNVRSIEVDYLDLEMFDPDLADLLIEKPDDVIRAAQQAIRNIDRLRKNVDLNIRFSGISNVIPLRELRSKFIGKFVAVDGIVRKTDEIRPRIVKAVFECRGCMRHHAVTQSTNMITEPSLCSECGGRSFRLLQDESEFLDTATLKLQEPLENLSGGEQPRQITVVLEDDLVDTLTPGDIVRVTGTLRTVRDERTKRFKNFIYGNYTEFLEQEFEELQISEEDEEKIKELAGDPNIYEKIIRSTAPSIHGYREVKEAIALQLFGGTGKELDDKTRLRGDIHILIVGDPGIGKSQMLKYVSKLAPRGIYTSGKGTSGVGLTAAAVRDEFGGWSLEAGALVLGDKGNVCVDELDKMREEDRSAIHEALEQQTISIAKAGIMATLNSRCSVLAAANPKFGRFDSYKSIAEQIDLPSTILSRFDLIFVVEDKPDEEKDRELARHILKTHKEDHMPFEIDPELLRKYIAYARKNVRPVLTDEAMQVLEDFYVSMRASAADEDSPVPITARQLEALVRLSEASAKIKLKEHVEAEDARKAIKLSQACLKQVGYDPETGKIDIDKVEGRTPKSERDKFRLLLELIKEYEDDYGGRAPTNILITEMMDRYNVSEEKVEELIRILKDKGAIFEPARGYLKIV
notes: as for B2
Regarding B6, the binding result was “binds”.

B7: Methanothermobacter thermautotrophicus MCM protein, G211A mutant (enzyme, UniProt O27798 1-666, looked up)
chain: MMKTVDKSKTLTKFEEFFSLQDYKDRVFEAIEKYPNVRSIEVDYLDLEMFDPDLADLLIEKPDDVIRAAQQAIRNIDRLRKNVDLNIRFSGISNVIPLRELRSKFIGKFVAVDGIVRKTDEIRPRIVKAVFECRGCMRHHAVTQSTNMITEPSLCSECGGRSFRLLQDESEFLDTQTLKLQEPLENLSGGEQPRQITVVLEDDLVDTLTPADIVRVTGTLRTVRDERTKRFKNFIYGNYTEFLEQEFEELQISEEDEEKIKELAGDPNIYEKIIRSTAPSIHGYREVKEAIALQLFGGTGKELDDKTRLRGDIHILIVGDPGIGKSQMLKYVSKLAPRGIYTSGKGTSGVGLTAAAVRDEFGGWSLEAGALVLGDKGNVCVDELDKMREEDRSAIHEALEQQTISIAKAGIMATLNSRCSVLAAANPKFGRFDSYKSIAEQIDLPSTILSRFDLIFVVEDKPDEEKDRELARHILKTHKEDHMPFEIDPELLRKYIAYARKNVRPVLTDEAMQVLEDFYVSMRASAADEDSPVPITARQLEALVRLSEASAKIKLKEHVEAEDARKAIKLSQACLKQVGYDPETGKIDIDKVEGRTPKSERDKFRLLLELIKEYEDDYGGRAPTNILITEMMDRYNVSEEKVEELIRILKDKGAIFEPARGYLKIV
notes: as for B2
For the protein B7, the binding result is listed as “binds”.

B8: Methanothermobacter thermautotrophicus MCM protein, D212N mutant (enzyme, UniProt O27798 1-666, looked up)
chain: MMKTVDKSKTLTKFEEFFSLQDYKDRVFEAIEKYPNVRSIEVDYLDLEMFDPDLADLLIEKPDDVIRAAQQAIRNIDRLRKNVDLNIRFSGISNVIPLRELRSKFIGKFVAVDGIVRKTDEIRPRIVKAVFECRGCMRHHAVTQSTNMITEPSLCSECGGRSFRLLQDESEFLDTQTLKLQEPLENLSGGEQPRQITVVLEDDLVDTLTPGNIVRVTGTLRTVRDERTKRFKNFIYGNYTEFLEQEFEELQISEEDEEKIKELAGDPNIYEKIIRSTAPSIHGYREVKEAIALQLFGGTGKELDDKTRLRGDIHILIVGDPGIGKSQMLKYVSKLAPRGIYTSGKGTSGVGLTAAAVRDEFGGWSLEAGALVLGDKGNVCVDELDKMREEDRSAIHEALEQQTISIAKAGIMATLNSRCSVLAAANPKFGRFDSYKSIAEQIDLPSTILSRFDLIFVVEDKPDEEKDRELARHILKTHKEDHMPFEIDPELLRKYIAYARKNVRPVLTDEAMQVLEDFYVSMRASAADEDSPVPITARQLEALVRLSEASAKIKLKEHVEAEDARKAIKLSQACLKQVGYDPETGKIDIDKVEGRTPKSERDKFRLLLELIKEYEDDYGGRAPTNILITEMMDRYNVSEEKVEELIRILKDKGAIFEPARGYLKIV
notes: as for B2
On to B8, for which the binding result is given as “binds”.
